The target in assay [1] is recombinant human laminin-511 (α5β1γ1) (human) (UniProt O15230).
For assay [2], the target named is recombinant human laminin-521 (α5β2γ1) (human) (UniProt O15230).
In assay [3] the target is recombinant human laminin-511 (α5β1γ1) (human) (UniProt O15230). The source holds these as a separate data set.
Assay [4] has as its target recombinant human laminin-521 (α5β2γ1) (human) (UniProt O15230). This is another data set of the same source.

This is an account of results in paper PMC3538678.

For the substance “recombinant human α3β1 integrin (from UniProt P26006 33-1051; P05556 21-728) (receptor)”, in assay [1], the adhesion of BE melanoma cells to wells coated with rhLM511 (20 µg/ml), OD was found to be 1.65 OD; the adhesion of KG1C glioma cells to wells coated with rhLM511 (20 µg/ml), OD turned out to be 1.48 OD; the adhesion of MDA-MB-231 breast carcinoma cells to wells coated with rhLM511 (20 µg/ml), OD came out at 1.82 OD. In assay [2], the adhesion of BE melanoma cells to wells coated with rhLM521 (20 µg/ml), OD turned out to be 1.56 OD; the adhesion of KG1C glioma cells to wells coated with rhLM521 (20 µg/ml), OD was 1.39 OD; the adhesion of MDA-MB-231 breast carcinoma cells to wells coated with rhLM521 (20 µg/ml), OD came to 1.85 OD. In addition, in assay [3], the migration of carcinoma cells through membranes coated with rhLM511, cells/field worked out at 190 cells/field; the migration of glioma cells through membranes coated with rhLM511, cells/field came out at 161 cells/field; the migration of melanoma cells through membranes coated with rhLM511, cells/field came out at 88 cells/field. Besides, in assay [4], the migration of carcinoma cells through membranes coated with rhLM521, cells/field was 198 cells/field; the migration of glioma cells through membranes coated with rhLM521, cells/field amounted to 174 cells/field; the migration of melanoma cells through membranes coated with rhLM521, cells/field came to 203 cells/field.
